{"source": "patent US20230303698A1", "about": "(published 2023)", "binders": {"B1": {"name": "PR002067, anti-OX40 heavy-chain antibody R1026P079E12 (antibody, V domains shown)", "VH": "EVQLLESGGGLVQPGGSLRLSCAASGFTFSSYAMSWVRQAPGKGLEWVSAISGRGGSTFYADSVRGRFTISRDNSKNTLYLQMNSLRAEDTAMYYCVDGTTGTTDVDYWGQGTLVTVSS"}, "B2": {"name": "PR001760, anti-4-1BB heavy-chain antibody 1016P0011G10 (antibody, V domains shown)", "VH": "EVQLVESGGGVVQPGGSLRLSCAASGFTFSNYAMTWVRQAPEKGLEWVSSISGSGVSTYYADSVKGRFTISRDNSKNTLYLQMTRLTAEDTAVYFCAKEGSSETDDHYYNVDVWGQGTTVTVSS"}, "B3": {"name": "PR002726, anti-CLDN18.2 monoclonal antibody 13E6F4 hIgG1 (antibody, V domains shown)", "VH": "EVQLLESGGGLVQPGGSLRLSCAASGFTFSSFVMSWVRQAPGKGLEWVSTISGSGRSTYYADSVKGRFTISRDNSKNTLHLQMNSLRAEDTAVYYCAKDAAAAGTKFDYWGQGTLVTVSS", "VL": "EIVLTQSPATLSLSPGERATLSCRASQSVSSYLAWYQQKPGQAPRLLIYDASNRATGIPARFSGSGSGTDFTLTISSLEPEDFAVYYCQQRSNWPLTFGGGTKVEIKR"}, "B4": {"name": "Anti-4-1BB monoclonal antibody urelumab analog (antibody, V domains shown)", "VH": "QVQLQQWGAGLLKPSETLSLTCAVYGGSFSGYYWSWIRQSPEKGLEWIGEINHGGYVTYNPSLESRVTISVDTSKNQFSLKLSSVTAADTAVYYCARDYGPGNYDWYFDLWGRGTLVTVSS", "VL": "EIVLTQSPATLSLSPGERATLSCRASQSVSSYLAWYQQKPGQAPRLLIYDASNRATGIPARFSGSGSGTDFTLTISSLEPEDFAVYYCQQRSNWPPALTFGGGTKVEIKR"}, "B5": {"name": "Anti-OX40 monoclonal antibody vonlerolizumab analog (antibody, V domains shown)", "VH": "EVQLVQSGAEVKKPGASVKVSCKASGYTFTDSYMSWVRQAPGQGLEWIGDMYPDNGDSSYNQKFRERVTITRDTSTSTAYLELSSLRSEDTAVYYCVLAPRWYFSVWGQGTLVTVSS", "VL": "DIQMTQSPSSLSASVGDRVTITCRASQDISNYLNWYQQKPGKAPKLLIYYTSRLRSGVPSRFSGSGSGTDFTLTISSLQPEDFATYYCQQGHTLPPTFGQGTKVEIKR"}, "B6": {"name": "PR000265, anti-PD-L1 91G3H5H3(D54E), hIgG1(N297A) (antibody, V domains shown)", "VH": "EVQLVESGGGLVQPGGSLRLSCAASGFTFSSYWMSWVRQAPGKGLEWVANIKQEGSEKYYVDSVKGRFTISRDNAKNSLYLQMNSLRAEDTAVYYCARDRAVAGAFDIWGQGTMVTVSS", "VL": "DIQMTQSPSTLSASVGDRVTVTCRASQSIYIWLAWYQQKPGKAPNLLIYKASSLETGVPSRFSGSGSGTEFTLTISSLQPDDFATYYCQQYYGSSRTFGQGTKVEIKR"}}, "key": {"human OX40": {"biological_target": "T1, human OX40 (human, UniProt P43489 29-277)", "T1 chain": "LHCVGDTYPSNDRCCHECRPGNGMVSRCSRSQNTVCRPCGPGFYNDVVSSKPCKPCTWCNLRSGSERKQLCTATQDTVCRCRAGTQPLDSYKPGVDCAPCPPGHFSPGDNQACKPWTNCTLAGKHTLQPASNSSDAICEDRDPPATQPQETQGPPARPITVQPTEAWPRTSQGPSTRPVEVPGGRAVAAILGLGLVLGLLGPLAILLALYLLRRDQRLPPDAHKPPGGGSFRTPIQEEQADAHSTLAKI", "experiment": "FACS"}, "[1]": {"biological_target": "T2, cynomolgus monkey OX40-His protein (cynomolgus monkey)", "T2 chain": "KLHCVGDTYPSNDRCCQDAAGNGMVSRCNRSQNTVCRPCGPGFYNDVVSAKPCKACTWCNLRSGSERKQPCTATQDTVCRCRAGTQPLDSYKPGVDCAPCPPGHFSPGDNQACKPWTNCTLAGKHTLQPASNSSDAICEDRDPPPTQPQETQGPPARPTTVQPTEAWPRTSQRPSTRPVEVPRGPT", "experiment": "ELISA"}, "human 4-1BB [2]": {"biological_target": "T3, human 4-1BB (human, UniProt Q07011 24-255)", "experiment": "FACS"}, "cynomolgus monkey 4-1BB": {"biological_target": "T4, cynomolgus monkey 4-1BB (cynomolgus monkey)", "T4 chain": "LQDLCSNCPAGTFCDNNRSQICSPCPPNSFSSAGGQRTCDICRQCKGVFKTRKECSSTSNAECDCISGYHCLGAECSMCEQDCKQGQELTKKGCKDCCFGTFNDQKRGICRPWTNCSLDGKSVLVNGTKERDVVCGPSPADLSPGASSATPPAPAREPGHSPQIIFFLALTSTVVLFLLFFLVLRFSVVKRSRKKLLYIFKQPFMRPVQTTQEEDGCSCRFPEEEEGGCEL", "experiment": "FACS"}, "human 4-1BB [3]": {"biological_target": "T3, human 4-1BB", "experiment": "FACS", "remark": "listed apart in the source"}, "human CLDN18.2": {"biological_target": "human CLDN18.2", "experiment": "FACS binding to NUGC-4 cells"}, "human 4-1BB [4]": {"biological_target": "T3, human 4-1BB", "experiment": "FACS; panel B"}, "human 4-1BB [5]": {"biological_target": "T3, human 4-1BB", "experiment": "FACS; panel B", "remark": "listed apart in the source"}, "human 4-1BB [6]": {"biological_target": "T3, human 4-1BB", "experiment": "FACS", "remark": "listed apart in the source"}, "human 4-1BB [7]": {"biological_target": "T3, human 4-1BB", "experiment": "FACS; FIG. 5"}, "human 4-1BB [8]": {"biological_target": "T3, human 4-1BB", "experiment": "FACS; panel A"}, "human 4-1BB [9]": {"biological_target": "T3, human 4-1BB", "experiment": "FACS; panel A", "remark": "listed apart in the source"}, "human 4-1BB [10]": {"biological_target": "T3, human 4-1BB", "experiment": "FACS; panel C"}, "human 4-1BB [11]": {"biological_target": "T3, human 4-1BB", "experiment": "FACS; FIG. 6"}, "human PD-L1 [12]": {"biological_target": "T5, human PD-L1 (human, UniProt Q9NZQ7 19-290)", "T5 sequence (Q9NZQ7 19-290)": "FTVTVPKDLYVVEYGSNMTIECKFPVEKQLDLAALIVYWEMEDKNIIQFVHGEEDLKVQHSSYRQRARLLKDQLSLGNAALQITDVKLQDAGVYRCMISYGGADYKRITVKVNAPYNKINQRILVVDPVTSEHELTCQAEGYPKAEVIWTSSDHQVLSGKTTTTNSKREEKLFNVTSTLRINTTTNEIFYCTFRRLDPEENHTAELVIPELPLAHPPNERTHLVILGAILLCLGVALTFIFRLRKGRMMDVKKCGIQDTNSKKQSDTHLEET", "experiment": "FACS; panel B"}, "human PD-L1 [13]": {"biological_target": "T5, human PD-L1", "experiment": "FACS binding to CHO-K1/hPD-L1 cells"}, "human PD-L1 [14]": {"biological_target": "T5, human PD-L1", "experiment": "FACS; panel C"}, "human PD-L1 [15]": {"biological_target": "T5, human PD-L1", "experiment": "FACS; panel A"}}, "data": [{"binder": "B1", "values": [{"measurement": "EC50", "setting": "human OX40", "result": 17800, "unit": "pM"}, {"measurement": "EC50", "setting": "[1]", "result": 232, "unit": "pM"}]}, {"binder": "B2", "values": [{"measurement": "EC50", "setting": "human 4-1BB [2]", "result": 3760, "unit": "pM"}, {"measurement": "EC50", "setting": "cynomolgus monkey 4-1BB", "result": 443, "unit": "pM"}, {"measurement": "EC50", "setting": "human 4-1BB [3]", "result": 3760, "unit": "pM"}]}, {"binder": "B3", "values": [{"measurement": "EC50", "setting": "human CLDN18.2", "result": 4980, "unit": "pM"}]}, {"binder": "B4", "values": [{"measurement": "EC50", "setting": "human 4-1BB [4]", "result": 794, "unit": "pM"}, {"measurement": "EC50", "setting": "human 4-1BB [5]", "result": 347, "unit": "pM"}, {"measurement": "EC50", "setting": "human 4-1BB [6]", "result": 1510, "unit": "pM"}, {"measurement": "EC50", "setting": "human 4-1BB [7]", "result": 459, "unit": "pM"}, {"measurement": "EC50", "setting": "human 4-1BB [8]", "result": 424, "unit": "pM"}, {"measurement": "EC50", "setting": "human 4-1BB [9]", "result": 1010, "unit": "pM"}, {"measurement": "EC50", "setting": "human 4-1BB [10]", "result": 1510, "unit": "pM"}, {"measurement": "EC50", "setting": "human 4-1BB [11]", "result": 459, "unit": "pM"}]}, {"binder": "B5", "values": [{"measurement": "EC50", "setting": "[1]", "result": 194, "unit": "pM"}]}, {"binder": "B6", "values": [{"measurement": "EC50", "setting": "human PD-L1 [12]", "result": 356, "unit": "pM"}, {"measurement": "EC50", "setting": "human PD-L1 [13]", "result": 1260, "unit": "pM"}, {"measurement": "EC50", "setting": "human PD-L1 [14]", "result": 1560, "unit": "pM"}, {"measurement": "EC50", "setting": "human PD-L1 [15]", "result": 781, "unit": "pM"}]}]}
